From patent US20050037421A1 (INSTITUTE FOR ANTIBODIES, published 2005)

Columns and labels:
[1] = biological target: glutathione S-transferase (GST); test: SPR (BIAcore 1000), GST immobilized on CM5 at 2252 RU
[2] = biological target: glutathione S-transferase (GST); test: SPR (BIAcore 1000), GST immobilized on CM5, global fitting; mass transport limitation, value used as the lower limit
[3] = biological target: glutathione S-transferase (GST); test: cell-based or functional assay
[4] = biological target: glutathione S-transferase (GST); test: SPR (BIAcore 1000), GST immobilized on CM5, Langmuir model, global fitting
[5] = biological target: glutathione S-transferase (GST); test: SPR (BIAcore 1000), GST immobilized on CM5, from kinetic analysis
[6] = biological target: glutathione S-transferase (GST); test: SPR (BIAcore 1000), GST immobilized on CM5
[7] = biological target: glutathione S-transferase (GST); test: SPR (BIAcore 1000), GST immobilized on CM5 at 1750 RU
[8] = biological target: T1, Bacillus stearothemophillus-derived lactic acid dehydrogenase (L-LACTIC DEHYDROGENASE) expressed in E. coli (Bacillus stearothemophillus, UniProt P00344 1-317); test: SPR (BIAcore), LDH immobilized on CM5, (Langmuir) binding model
T1 construct: purity about 80%; also called LDH
Method: (§1) […] on CM5 were activated using EDC/NHS (equal amounts of EDC and NHS of Amine Coupling Kit (BIAcore) were mixed) (8-minute contact time), and the chip was washed with HBS-EP (BIAcore). Twenty μg/mL of LDH (Sigma, […] diluted in 10 mM acetic acid (pH5.0)) was then added to the chip. After washing the chip with HBS-EP, 1 M ethanol amine (pH 8.5) was added to inactivate the remaining activated carboxyl groups. Following the inactivation, the chip was washed with HBS-EP to remove all LDHs that had not been covalently bound. The amount of immobilized antigens was calculated 5653 RU. When binding was evaluated by adding saturating amounts of clone No. 430 to the sensor, the value was near 800 RU.
(§2) All experiments were performed in HBS-EP at 25° C., and regeneration was performed under optimum conditions. Washing was performed for 1 min using 50 mM citric acid (pH2.5).
(§3) The binding was monitored by changing the LDH concentration (5×10⁻⁸ M to 4.0×10⁻⁷ M). […] Base-line correction was also taken into consideration. Values of ka (1/Ms), kd (1/S), and KD calculated based on kinetic analysis using global fitting (BIAevaluation Ver. 3) were as shown in Table 6.

[9] = biological target: T1, Bacillus stearothemophillus-derived …; test: SPR (BIAcore), LDH immobilized on CM5, 1:1 binding with mass transfer model
Method: as §1, §2, §3

[10] = biological target: T1, Bacillus stearothemophillus-derived …; test: SPR (BIAcore), LDH immobilized on CM5 at 5653 RU
Method: Procedure similar to that with GST was used to immobilize LDH on CM-sensor chip (Sensor Chip CM5, Research grade, BIAcore) using the amino coupling method.
as §1

[11] = biological target: T1, Bacillus stearothemophillus-derived …; test: cell-based or functional assay
[12] = biological target: T1, Bacillus stearothemophillus-derived …; test: ELISA: LDH on the plate (PBS wells as negative control), culture supernatant with VHH-cp3, anti-cp3 monoclonal and anti-mouse IgG-POD, OD 492 nm
Method: Similarly to anti-GST VHH, 60 clones and 36 clones were prepared as monoclones from the 3rd and 4th screenings, respectively. Next, ELISA was performed similarly as for anti-GST VHH.
LDH dissolved in PBS at 200 μg/mL was used to sensitize MaxiSorp™. Culture supernatant, 10-fold diluted mouse anti-cp3 monoclonal 3G3A8H1, and 1000-fold diluted goat anti-mouse IgG (H+L)-POD were added as primary, secondary, and tertiary antibodies, respectively, to this antigen-sensitized plate. As negative control, PBS was added instead of performing antigen sensitization.

T1 sequence (P00344 whole entry): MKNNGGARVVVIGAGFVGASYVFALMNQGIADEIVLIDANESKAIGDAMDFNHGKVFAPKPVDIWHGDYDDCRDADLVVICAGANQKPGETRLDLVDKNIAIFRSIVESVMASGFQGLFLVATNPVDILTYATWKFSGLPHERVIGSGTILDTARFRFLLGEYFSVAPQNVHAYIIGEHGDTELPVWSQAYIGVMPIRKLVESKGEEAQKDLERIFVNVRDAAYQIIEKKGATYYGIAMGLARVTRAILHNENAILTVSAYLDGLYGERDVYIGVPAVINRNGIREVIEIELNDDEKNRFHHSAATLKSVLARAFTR

Binder	Ka [8]	Kd [8]	koff [8]	kon [8]	Ka [9]	Kd [9]	koff [9]	kon [9]	response at saturating amount (RU) [10]	LDH reaction rate in the direction of lactic acid production [11]	binding result [12]	other results
anti-GST VHH clone No. 75, protein A-fused type (VHH, not shown: large carriers) VHH: AVQLVDSGGGSVQAGGSLRLSCAASGTTYCTYDIAWYRQAPEKDYEFVSVIDSDGSTRYADSVKGRFTISRDNAKNTVYLQMNSLKPEDTAMYYCKTVFKSWCSDGLGTTLPNYWGQGTQVTVSS	–	–	–	–	–	–	–	–	–	–	–	response at saturating amount (RU) [1]: 300 RU; koff [2]: 0.000915 s⁻¹; GST enzyme inhibitory activity (absorbance at 340 nm, CDNB and glutathione as substrates) [3]: > 1.5 µM; kon [4]: 38100 M⁻¹ s⁻¹; Kd [5]: 24 nM
anti-GST VHH clone No. 29, protein A-fused type (VHH, not shown: large carriers) VHH: EVQLVESGGGSVQAGGSLKLSCGLSGYTSSMNAMGWFRQAPGKEREGVAAVSRGGKAYYADSVKGRFTVSRDNVKNTVDLQMKGLKAEDTATYYCAATDESPLRRRFSLLDRRRYDWWGRGTQVFVSS	–	–	–	–	–	–	–	–	–	–	–	koff [6]: 0.00255 s⁻¹; kon [6]: 25400 M⁻¹ s⁻¹; response at saturating amount (RU) [7]: 460 RU; Kd [5]: 100 nM
anti-LDH VHH clone No. 430, protein A-fused type (VHH, not shown: protein A part of the vector after SalI digestion and self-ligation) VHH: EVQLVESGGDSVQAGGSLRLSCVASSSTYSGNCMAWFRQAPGKEREGVAVVYTDDDTTYYADSVKGRFTISQDTAKNTLYLQMNSLKPEDTAMYYCATRDAWRRIGSWRDVAIYDYWGQGTQVTVSS	3.8e+06 M⁻¹	263 nM	0.00258 s⁻¹	9820 M⁻¹ s⁻¹	4.04e+06 M⁻¹	248 nM	0.00285 s⁻¹	11500 M⁻¹ s⁻¹	~800 RU	–	–	IC50 of LDH enzyme inhibition [11]: ~400 nM
anti-LDH VHH clone No. 418, protein A-fused type (VHH, not shown: large carriers) VHH: EVQLVESGGGSVQAGDSLRLSCTTSGFTFANSVMVWYRQGSGNECKLVSSISTDGTTYYSTSVKGRFTISRDNAKNTVYLQMNNLKAEDTAMYYCAADFQASTVGRCDGYGYAKWGQGTQVTVSS	–	–	–	–	–	–	–	–	–	10 fold	–	–
anti-LDH VHH clone No. 421, protein A-fused type (VHH, not shown: protein A part of the vector after SalI digestion and self-ligation) VHH: AVQLVESGGGSVQAGGFLRLSCVASVNYCMAWFRQAPGKEREGVAAINRDGRTTAYADSVKGRFTISRGNEKNTVYLLMNNLKAEDTATYYCAAYVGGSYSCGTLENDGYKYWGQGTQVTVSS	5.83e+06 M⁻¹	172 nM	0.00409 s⁻¹	23900 M⁻¹ s⁻¹	5.83e+06 M⁻¹	171 nM	0.00409 s⁻¹	23900 M⁻¹ s⁻¹	~1400 RU	10 fold	–	–
anti-LDH VHH clone No. 428, protein A-fused type (VHH, not shown: protein A part of the vector after SalI digestion and self-ligation) VHH: QVQLVESGGGLVQPGGSLRLSCAASGFSFSRSGMSWGRQAPGKGFEWVSRISSGGATWYADSVKGRFSISRDNAKNTVYLQLDSLKTEDTGMYYCAASDRSGSTYRGQGTQVTVSS	2.81e+06 M⁻¹	356 nM	0.00513 s⁻¹	14400 M⁻¹ s⁻¹	2.86e+06 M⁻¹	350 nM	0.00516 s⁻¹	14800 M⁻¹ s⁻¹	~500 RU	5 fold	–	–
anti-LDH VHH clone No. 407, protein A-fused type (VHH, not shown: protein A part of the vector after SalI digestion and self-ligation) VHH: AVQLVESGGGSVQTGGSLRLSCVASGYTYSSARIGWFRQAPGKEREGVAAILTDGVTTYYADAVKGRFTISRDNAKNTVYLQMNSLKPEDTAMYYCAIRTSPYSGGWFRVSQYNGWGQGTQVTVSS	–	–	–	–	–	–	–	–	–	–	binds	–
anti-LDH VHH clone No. 415, protein A-fused type (VHH, not shown: protein A part of the vector after SalI digestion and self-ligation) VHH: DVQLVESGGGSEQAGGSLRLSCAAPNITYCTGDRSWYRQAPGKEREFVSSINNDGTASYADSVKGRFTISQDIVKKSVYLRMNSLKPEDTAMYYCKTDFVDGTWCAIKFGRTHWGQGTQVTVSS	–	–	–	–	–	–	–	–	–	–	binds	–
anti-LDH VHH clone No. 426, protein A-fused type (VHH, not shown: protein A part of the vector after SalI digestion and self-ligation) VHH: EVQLVESGGGSVQAGGSLRLSCAAPGNTYSTNLMGWFRQAPGKEREGVAAICCGRGTTFYADSVKGRFTISQDNAKKMVYLQMELLRPEDTGIYYCASGSVRGIWSGTSQYKYWGQGTQVTVSS	–	–	–	–	–	–	–	–	–	–	binds	–
anti-LDH VHH clone No. 434, protein A-fused type (VHH, not shown: protein A part of the vector after SalI digestion and self-ligation) VHH: EVQLVESGGGSVQAGGSLRLSCAASGYTSGRNYMAWFRQAPGKEREGVGRIYSTGGSARYADSVKGRFTISQDLSNDTMYLQMNNLKPEDTGMYYCAAGKPYGDMLDARGYKYWGHGTQVTVSS	–	–	–	–	–	–	–	–	–	–	binds	–
